Assay results published in US20050255113A1, “Methods and compositions for inhibiting polypeptide accumulation associated with neurological disorders” (New York State Department of Health and Abgenix, Inc., priority 1999, published 2005).

How the values were obtained:
[1] = test system: DRPLA polypeptide (GFP-DRPLA-35Q, GFP-DRPLA-Q81); test: Intrabody retargeting specificity in COS-7 cells with DRPLA polypeptide (immunofluorescence); format: cell-based; conditions: COS-7 co-transfection
Method: (§1) COS 7 cells were grown on cover glass in 6-well plates (10^5 cells/well) and co-transfected at a ratio of 3:1 (sFv to target) with plasmids containing either N-HD-C4 sFv or a negative control sFv (containing an HA tag and SV40 nuclear localization sequence (NLS)) and plasmids containing GFP-targeted fusion proteins using 5 μl SuperFect transfection reagent (QIAGEN). At 24 hours post-transfection, cells were prepared for immunofluorescence as follows: cells were fixed with 4% paraformaldehyde and permeabilized with 0.2% triton-X100. To prevent non-specific binding of secondary antibodies, cells were blocked with 10% normal goat serum in 3% BSA.
The model DRPLA target polypeptide was fused to a GFP domain to track the expression and intracellular localization of the target polypeptide in the transfected cells. In addition, two different intrabodies, one specific to huntingtin, and a second intrabody specific to an unrelated polypeptide, were independently cotransfected with the DRPLA target polypeptide.
FIGS. 13A-F show stably transfected COS-7 cells expressing α-Nt-HD-C4 sFv-HA-NLS which were further transfected with plasmids encoding either the model altered huntingtin polypeptide with 104 glutamine repeats (FIGS. 13B, D, F) or the model altered DRPLA polypeptide with 81 glutamine repeats (FIGS. 13A, C, E). […]

[2] = test system: HD-polyQ72-GFP or HD-Q104-GFP in BHK cells; test: Double label immunofluorescence of BHK cells co-transfected with C4 sFv and HD-polyQ-GFP; format: cell-based; conditions: 5:1 C4:HD-polyQ-GFP
Method: Some aggregates are found in 104Q co-transfections (never in 25Q), often in cells not expressing C4 (arrowheads), but in some dually-transfected cells as well (arrow). […] Cell lysates were collected from 5:1 co-transfections (sFv:HD-72Q-GFP) in duplicate at 24 hours (prior to prominent aggregate formation and loss of HD-72Q-GFP to the insoluble compartment) and subjected to SDS-PAGE. The membrane was probed with 1:1000 […] primary antibody (Quantum), stripped and reprobed with 1:500 anti-actin antibody (Sigma). HD-72Q-GFP bands were of similar intensity after detection by HRP-conjugated secondary antibody and chemiluminescence.
The typical intrabody constructs were fused to a C-terminal hemagglutinin (HA) peptide tag to facilitate immunodetection of the protein, while keeping the protein localized to the cytosol. […] The diffuse labeling was also characteristic of the normal length (25Q) construct, with or without intrabody co-transfection (FIG. 15).

[3] = test system: N-terminal HD sequence (Nt-HD); test: ELISA of sFv binding to immobilized GST-fusion proteins / biotinylated Nt-HD peptide; conditions: plates with streptavidin, GST-HD-42Q, GST-HD-65Q, GST-DRPLA-35Q
Method: As described in Example 2, four rounds of selection were performed with decreasing concentrations of antigen at each round (100 nM, 50 nM, 10 nM, 1 nM). After the third round, bacterial clones were screened to isolate those which secreted sFv molecules specific to the N-terminal HD sequence. Screening was performed by ELISA. Bacterial supernatants containing secreted sFv were incubated with either 2% bovine serum albumin (BSA), as negative control, or with 2% BSA containing biotinylated antigen (0.1 μg/well, final concentration) in pre-blocked microtiter plates overnight at 4° C. The mixtures were then transferred to streptavidin-coated (0.1 μg/well, final concentration) microtiter plates. […] Bound IgG was detected with alkaline phosphatase conjugated to goat anti-mouse IgG.
Four rounds of selection were performed with decreasing concentrations of antigen at each round (i.e., 100 nM, 50 nM, 10 nM, 1 nM). […] Bound sFv was detected with α-9E10 IgG followed by alkaline phosphatase conjugated goat anti-mouse IgG.
To characterize the precise binding properties of the intrabody of the invention, further qualitative and quantitative studies of sFv binding to immobilized antigen were conducted in vitro. […] The kinetics of association and dissociation were determined for the C4 sFv antibody in the BIAcore 2000 (FIG. 11B).

[4] = test system: model huntingtin polypeptide (HD-25Q-GFP, pHD-104Q-GFP, HD-Q104-myc, GFP-HD-Q104); test: Intrabody retargeting of model huntingtin polypeptide in co-transfected COS-7 cells (immunofluorescence); format: cell-based; conditions: co-transfected mammalian cells
Chain of model huntingtin polypeptide (HD-25Q-GFP, pHD-104Q-GFP, HD-Q104-myc, GFP-HD-Q104) (as listed by the source): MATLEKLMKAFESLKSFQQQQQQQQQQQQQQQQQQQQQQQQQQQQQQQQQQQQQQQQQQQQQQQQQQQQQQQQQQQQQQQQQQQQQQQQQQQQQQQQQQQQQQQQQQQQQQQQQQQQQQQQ
Method: as §1
The assay is designed such that both the target antigen, i.e., the model huntingtin polypeptide, and the intrabody can be visualized. In particular, the huntingtin polypeptide is visualized by detecting fluorescence emitted by the GFP domain of the huntingtin-GFP fusion polypeptide and the intrabodies tested are visualized using a rhodamine-conjugated antibody that can specifically bind to the intrabody.
The model HD target polypeptide was fused to c-myc (EQKLISEEDL (SEQ ID NO: 45)) epitope tag (HD-Q104-myc). The intrabodies sequences were fused to a HA tag and a SV40 nuclear localization signal (sFv-HA-NLS), so that bound antigens should be retargeted to the cell nuclei. At 48 hours post-transfection, cells were fixed and permeabilized. The HD-Q104-myc proteins were detectable using anti-myc epitope antibodies (i.e., MAb 9E10 IgG), followed by FITC-labeled goat anti-mouse IgG. The sFv-HA-NLS intrabodies were detected by polyclonal rabbit anti-HA IgG followed by rhodamine-conjugated goat anti-rabbit IgG antibodies.
FIGS. 13A-F show stably transfected COS-7 cells expressing α-Nt-HD-C4 sFv-HA-NLS which were further transfected with plasmids encoding either the model altered huntingtin polypeptide with 104 glutamine repeats (FIGS. 13B, D, F) or the model altered DRPLA polypeptide with 81 glutamine repeats (FIGS. 13A, C, E). Both model altered polypeptides were fused to GFP (GFP-HD-Q104 and GFP-DRPLA-Q81, respectively).

Chain of DRPLA polypeptide (GFP-DRPLA-35Q, GFP-DRPLA-Q81) (P54259 with tags, fused parts or gaps DUP487-502): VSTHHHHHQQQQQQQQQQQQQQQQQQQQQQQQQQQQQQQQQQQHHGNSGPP

B1: C4 sFv: human single-chain Fv intrabody from phage display, specific for the 17 N-terminal residues of huntingtin; SEQ ID NO: 6 (protein)
scFv: QVQLQESGGGLVQPGGSLRLSCAASGFTFSSYSMSWVRQAPGKGLEWVAVISYDGSNKYYADSVKGRFTISRDNSKNTLYLQMNSLRAEDTAVYYCARDRYFDLWGRGTLVTVSSGGGGSGGGGSGGGGSQSALTQPASVSGSPGQSITISCTGTSSDIGAYNYVSWYQQYPGKAPKLLIYDVSNRPSGISNRFSGSKSGDTASLTISGLQAEDEADYYCSSFANSGPLFGGGTKVTVL
- cellular distribution of GFP-DRPLA-35Q [1]: no change in the cellular distribution of DRPLA polypeptide
- GFP label and aggregates in dual transfectants [2]: substantial diffuse GFP label, but with only an occasional fluorescent aggregate
- ELISA binding specificity [3]: binds specifically to the N-terminal HD sequence
- ELISA binding specificity ([3]; listed as cc-Nt-HD-C4 sFv): reacted preferentially with antigens containing the Nt-HD flanking peptide sequence
- retargeting of altered huntingtin polypeptide with 104 glutamines (pHD-104Q-GFP) [4]: can specifically retarget the cellular distribution of the model altered huntingtin polypeptide
